First the molecules themselves.
B1: EYFP^C-CsACD2 (other)
chain: MAVNHLCQWQYLRFQLSHPSAPACRYLSPSRPKSSTSSTAKVNCSAAPSSSPMDSHNEGRKKFMEFPYASGPVRQLMVDLVSTVENTLDSQLLPCTLPPDVQYYENQNGTAQASLQIRSGLKSSLIDFILGSWVHSELPTGAALNITSLSAYLNSSTDAPNLLIELIQSSPTSLVLILDLPPRKDLVLHPDYLHTFYESTRLDEYRQMLEKVPEVRPYFSSSLYLRCVVSPSAIMVRVDTETETGAGESTRLDYIITNHVHPVAKQVIGIWLNQCACGGRHVGESDKAYLEKRDGLIKNKTIEIDLGSSFPRLFGPQVASRVLGEIQKVFTA
notes: not shown: C-terminal fragment of EYFP (pSAT6-cEYFP-C1-B) and its linker

Experiment [1] concerns the target SDE15-EYFP^N ([…]_04025 without signal peptide fused to the N-terminal fragment of EYFP) (Ca. liberibacter asiaticus). Nature of the experiment: BiFC in citrus leaf protoplasts (FIG. 10B).
The target of the experiment “EYFP^C-CsACD2” is B1. Nature of the experiment: BiFC in citrus leaf protoplasts.
In experiment [2] the target is EYFP^C-SDE15 ([…]_04025 without signal peptide fused to the C-terminal fragment of EYFP) (Ca. liberibacter asiaticus). Nature of the experiment: BiFC in citrus leaf protoplasts (FIG. 10B).

Regarding B1, in experiment [1], the binding result was “binds”.

B2: CsACD2-EYFP^N (other)
chain: MAVNHLCQWQYLRFQLSHPSAPACRYLSPSRPKSSTSSTAKVNCSAAPSSSPMDSHNEGRKKFMEFPYASGPVRQLMVDLVSTVENTLDSQLLPCTLPPDVQYYENQNGTAQASLQIRSGLKSSLIDFILGSWVHSELPTGAALNITSLSAYLNSSTDAPNLLIELIQSSPTSLVLILDLPPRKDLVLHPDYLHTFYESTRLDEYRQMLEKVPEVRPYFSSSLYLRCVVSPSAIMVRVDTETETGAGESTRLDYIITNHVHPVAKQVIGIWLNQCACGGRHVGESDKAYLEKRDGLIKNKTIEIDLGSSFPRLFGPQVASRVLGEIQKVFTA
notes: not shown: N-terminal fragment of EYFP (pSAT6-nEYFP-C1) and its linker
Consider B2, for which the binding result is “no binding” with EYFP^C-CsACD2 and “binds” in experiment [2].
